Reference: paper PMC10352329 (2023)
Where a chain is given by its changes, count along the chain named. Names and notes keep the numbering of the source. Blank lines part the entries; values can stand above or below the binder they belong to. Where no end group is shown, it is not given here.

Experiments:
[1] = target: T1, human p300BRP (residues 1048–1282), wild type (human, UniProt Q09472 1048-1282, fluorescently labeled with a His tag Labeling Kit (microscale thermophoresis only)); test: ITC
T1 chain: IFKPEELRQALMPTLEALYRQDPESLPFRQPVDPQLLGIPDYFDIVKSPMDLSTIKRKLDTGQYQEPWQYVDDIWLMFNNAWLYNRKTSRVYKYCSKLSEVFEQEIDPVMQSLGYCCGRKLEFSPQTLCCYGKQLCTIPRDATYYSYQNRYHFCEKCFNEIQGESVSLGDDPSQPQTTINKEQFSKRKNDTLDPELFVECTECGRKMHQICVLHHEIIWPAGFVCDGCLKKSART

[2] = target: N-terminal bromodomain of human BRD4 (residues 44–168) (human, UniProt O60885 44-168); test: ITC
[3] = target: 180-bp unmodified nucleosome (human, UniProt P04908 1-130; P68431 1-136; P62805 1-103); test: MST

Kd [1]: > 500 µM
B1: di-acetylated H2B peptide K12ac/K15ac (peptide)
chain: PAPKK(Ac)GSK(Ac)KAVTK

Kd [2]: > 500 µM
B2: di-acetylated H2B peptide K20ac/K23ac (peptide)
chain: KAVTK(Ac)AQK(Ac)KDGK

B3: human p300BRP (residues 1048–1282), 4A-substituted mutant (R1133A, K1134A, R1137A, K1140A) (domain or fragment)
chain: T1 chain with R86A, K87A, R90A, K93A
modifications: fluorescently labeled with a His tag Labeling Kit (microscale thermophoresis)
EC50 [3]: 0.0073 µM
